Substrate in data set [1]: O=Cc1ccc(O)c(O)c1
Nature of the data set: LC-MS/MS methyltransferase assay, nonlinear regression. The data set is classed as biochemical, Narcissus papyraceus. The note with it: SAM as methyl donor, Zn^2+, product vanillin (3-O-methylation, major product), optimized condition pH 7.4, 45 °C. The text has this: (§1) LC-MS/MS methyltransferase assay, nonlinear regression on NpOMT

Substrate in data set [2]: Oc1ccc(CCNCc2ccc(O)c(O)c2)cc1
Described as above. The data set is classed as biochemical, Narcissus papyraceus. The note with it: SAM as methyl donor, Mg^2+, product 4'-O-methylnorbelladine, optimized condition pH 7.4, 45 °C, 30 min.
From the text: as §1

B1: NpOMT (Narcissus papyraceus) (protein)
chain: MGASQDDYALIHKNILHSEELLKYILETSAYPREHEQLKGLREVTEKHEWSSALVPADEGLFLSMLLKLMNAKRTIEIGVYTGYSLLTTALALPEDGKITAIDVNKSFFEIGLPFIQKAGVEHKINFIESEALPVLDQMVQEMKEEDLYDYAFVDADKSNYANYHERLVKLVRVGGAILYDNTLWYGSVAYPEYPGLHPEEEVARLSFRQLNTLLAADPRVEISQVSIGDGVTICRRLY
notes: homodimer only modelled
By Km is commonly meant the concentration of substrate that gives half-maximal velocity. As a reminder, the Vmax is the top rate of the reaction or transport when substrate is in excess. Broadly, the kcat is the number of substrate molecules converted per active site and unit of time at saturation. In general, kcat/Km refers to the turnover number divided by the Michaelis constant. As to B1, in data set [1], the Km came to 491 ± 51 µM, the Vmax was found to be 19.1 µM/min, the kcat was 0.0637 ± 0.0025 s⁻¹ and the kcat/Km is 130 M⁻¹ s⁻¹. In data set [2], the Km stood at 169 ± 19 µM, the Vmax amounted to 10.9 µM/min, the kcat stood at 0.0362 ± 0.004 s⁻¹ and the kcat/Km came out at 214 M⁻¹ s⁻¹.

(Values after paper PMC11407090, “Kinetic and in silico structural characterization of norbelladine O-methyltransferase of Amaryllidaceae alkaloids biosynthesis” (The Journal of Biological Chemistry, 2024).)
